The target in the experiment is CD20 receptor on WIL2-S cell line (human) (UniProt P11836). In words: flow cytometry on WIL2-S cells, detection with anti-human Fc-PE. (In flow cytometry, cells or beads pass a laser one at a time.)
Sequence of UniProt P11836 (P11836 whole entry): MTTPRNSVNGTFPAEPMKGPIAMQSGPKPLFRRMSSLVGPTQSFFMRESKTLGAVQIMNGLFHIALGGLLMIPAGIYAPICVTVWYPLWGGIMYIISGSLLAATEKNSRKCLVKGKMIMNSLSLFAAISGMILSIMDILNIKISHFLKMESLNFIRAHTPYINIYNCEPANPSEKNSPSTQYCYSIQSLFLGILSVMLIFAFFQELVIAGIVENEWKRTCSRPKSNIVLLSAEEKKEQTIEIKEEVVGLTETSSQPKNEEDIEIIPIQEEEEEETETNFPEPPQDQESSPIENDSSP

In turn, MabThera (Rituximab) (antibody) showed an EC50 (read off the curve) of 1 µg/mL.

For orientation: EC50 (read off the curve) means the concentration giving half of the maximal effect.

(Values after US20220089761A1.)
